Test system: MS2 coat protein
Experiment: apparent KD of MS2 coat protein; designed switch direction (-1 OFF switch, 1 ON switch): -1; higher = weaker reporter binding
Method in brief: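 Transcription of designed RNA switches on Illumina chips was done by stalled E. coli RNA polymerase. SNAP-549-labelled MS2 coat protein was then titrated in doubling steps from 0.7 or 1.5 nM to 3 µM, with steps of 0.8–1.5 h at the lowest and 10–20 min at the highest concentration. The per-design median over clusters of curve-fitted normalised fluorescence is reported as apparent KD.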

[1] = input ligand: microRNA oligo, concentration not stated
[2] = Eterna round: R95, input ligand: microRNA oligo, concentration not stated
[3] = Eterna round: R95, input ligand: FMN 200 uM
[4] = Eterna round: R95, input ligand: none

## AAGUGCGAAGGAUAUACAUGAGGAUCACCCAUGUUCACCAAAACACAGGUCUCAGACUGUAGAAGGUCGCACAG [Eternabot (Original) Solution 45] (Eterna round: R97, puzzle: Exclusion 3)
Input ligand: FMN 200 uM
  apparent KD of MS2 coat protein: 605 nM
Input ligand: none
  apparent KD of MS2 coat protein: 59.8 nM

## UUUCCACAUGAGGAUCACCCAUGUCAGGAUAUUAUAGUUGGCCGAAAGGCGUCAGUGGUAAGAAGGGACGUUGA [Eternabot (L2) Solution 46] (Eterna round: R97, puzzle: Exclusion 1)
Input ligand: FMN 200 uM
  apparent KD of MS2 coat protein: 16.1 nM
Input ligand: none
  apparent KD of MS2 coat protein: 15.8 nM

## CAGUACUGAGGAUAUACAUGAGGAUCACCCAUGUGGUCCAGCUAGGAAACUAGCACGUGUAGAAGGCAGUACUG [Ex3: 840] (Eterna round: R96, puzzle: Exclusion 3)
Input ligand: FMN 200 uM
  apparent KD of MS2 coat protein: 58.3 nM
[1]
  apparent KD of MS2 coat protein: 55.3 nM
Input ligand: none
  apparent KD of MS2 coat protein: 45.7 nM

## CCUUGUCUGAAGGAUAUCCGCCGAAAAGGCAAGGGAGAAGGUUAGACAUGAGGAUCACCCAUGUGCCGGUGUAA [EX6 A.3] (Eterna round: R97, puzzle: Exclusion 6)
Input ligand: FMN 200 uM
  apparent KD of MS2 coat protein: 44.2 nM
Input ligand: none
  apparent KD of MS2 coat protein: 25.5 nM

## GCAAGCUUAAUCACUAUGAACAUGAGGAUCACCCAUGUAUAAGGUAAUACUUUUGGGCCCUUUAUUACUCGUCUUAU [JR_STOV1_Sub030] (Eterna round: R97, puzzle: Sensor, turn-off variant 1)
Input ligand: FMN 200 uM
  apparent KD of MS2 coat protein: 61.3 nM
Input ligand: none
  apparent KD of MS2 coat protein: 80.3 nM

## GGGUUACAUGAGGAUCACCCAUGUGAGGAUAUGAUACUAUGUACUUCGGUACAUAGUAUCAGAAGGCACAUAAA [Ex1-3: 19] (puzzle: Exclusion 1)
[2]
  apparent KD of MS2 coat protein: 121 nM

## UGCCUAUGAGGAUAUACAUUGAAUAAGAUUCAUGUAAAACUACAUGAGGAUCACCCAUGUAGAAGGCAUGGGCU [Mat - Exclusion 2 - JL Mod - D70] (Eterna round: R97, puzzle: Exclusion 2)
Input ligand: FMN 200 uM
  apparent KD of MS2 coat protein: 29 nM
Input ligand: none
  apparent KD of MS2 coat protein: 19.1 nM

## UACUUCUGAGGAUAUACAUAGAUUUACAUGAGGAUCACCCAUGUUCCUCUAUGUAUAAAUGUAGAAGGCAGAAGAU [Mat - Exclusion 5 - JL Mod - D61] (Eterna round: R97, puzzle: Exclusion 5)
Input ligand: FMN 200 uM
  apparent KD of MS2 coat protein: 87.8 nM
Input ligand: none
  apparent KD of MS2 coat protein: 16.7 nM

## GCUGGUCAAGGAUAUACAAUCGUGCUUCGGCACGUAAGAUCACAUGAGGAUCACCCAUGUAGAAGGUGACCAGC [E2/1-C1] (Eterna round: R97, puzzle: Exclusion 2)
Input ligand: FMN 200 uM
  apparent KD of MS2 coat protein: 507 nM
Input ligand: none
  apparent KD of MS2 coat protein: 37.2 nM

## CUUGUUUAUGUAGGAUAUGCCUGGCGUGCCUUUGCAGAAGGACAUGAGGAUCACCCAUGUAACAUGAGGCUCACCCAUGUCGCU [salish99_ExNG1_r04_106] (Eterna round: R96, puzzle: Exclusion NG 1)
Input ligand: FMN 200 uM
  apparent KD of MS2 coat protein: 434 nM
[1]
  apparent KD of MS2 coat protein: 224 nM
Input ligand: none
  apparent KD of MS2 coat protein: 292 nM

## AAAUUGUGAGGAUAUCCAAUAUAUGACAUGAGGAUCACCCAUGUUUCCACUCGUACCUCCGGAGAAGGCACUGCAA [Ex5 #39] (Eterna round: R97, puzzle: Exclusion 5)
Input ligand: FMN 200 uM
  apparent KD of MS2 coat protein: 22.3 nM
Input ligand: none
  apparent KD of MS2 coat protein: 27.2 nM

## GACCGGACGUGGUCUGGUAACAUGAGGAUCACCCAUGUAGGUCUAAGAACAAGCCUUUUGCACGCUCGUCUUAUAUU [JR_SV3TOV1_Sub061] (puzzle: Sensor v3, turn-off variant 1)
[3]
  apparent KD of MS2 coat protein: 64.4 nM
[2]
  apparent KD of MS2 coat protein: 56.5 nM
[4]
  apparent KD of MS2 coat protein: 88.2 nM

## AAUAACAAGCUGAUCCUCCACAUGAGGAUCACCCAUGUGUUCGUCUUGUAAAGUACUAUCACGAAAGUGAUAGUACA (Eterna round: R97, puzzle: Sensor, turn-off variant 1)
Input ligand: FMN 200 uM
  apparent KD of MS2 coat protein: 984 nM
Input ligand: none
  apparent KD of MS2 coat protein: 1630 nM

## AAGGCGGUAGGAUAUACAUGAGGAUCACCCAUGUACGCGUGGAUCCCUGUGACGUCAAGUAGAAGGGCCAUAAA [Xetesobiar] (Eterna round: R97, puzzle: Exclusion 3)
Input ligand: FMN 200 uM
  apparent KD of MS2 coat protein: 27.5 nM
Input ligand: none
  apparent KD of MS2 coat protein: 31.8 nM

## AACGUGUAAGGAUAUGCUGCUCGUCACGAAAGUGAUGAGUAGCAGAAGGUACAUGAGGAUCACCCAUGUAAAGA [Exclusion 4.1f (Exclusion4-cac2 - changed GC at 6/50 to AU )] (Eterna round: R96, puzzle: Exclusion 4)
Input ligand: FMN 200 uM
  apparent KD of MS2 coat protein: 91.6 nM
[1]
  apparent KD of MS2 coat protein: 19 nM
Input ligand: none
  apparent KD of MS2 coat protein: 22.2 nM

## GAUUAUGCGAGCUUUAGGGACAUGAGGAUCACCCAUGUUCGUCUUAUUGGUCUGGAUACGCUGACAUACCUAAAUCU [JMF 97] (puzzle: Sensor v3, turn-off variant 1)
[3]
  apparent KD of MS2 coat protein: 18.6 nM
[2]
  apparent KD of MS2 coat protein: 28.4 nM
[4]
  apparent KD of MS2 coat protein: 20.9 nM

## AAAAUGUGAGGAUAUCAGGUGUGCUAGCGAACUGGUACAUCUGAGAAGGCACAUGAGGAUCACCCAUGUUCCUU [Mat - Exclusion 4 - Mod of JL - D51] (puzzle: Exclusion 4)
[2]
  apparent KD of MS2 coat protein: 16.2 nM

## CAGUGCUGACGGAGAUCCAACAUGAGGAUCACCCAUGUCUCAAAAGCUUUUUGCUCGUCUUAUCCUCCUCAGUACUC [Mat - Sensor, turn-off var - Eli Mod - D57] (Eterna round: R97, puzzle: Sensor, turn-off variant 1)
Input ligand: FMN 200 uM
  apparent KD of MS2 coat protein: 14.6 nM
Input ligand: none
  apparent KD of MS2 coat protein: 19.2 nM

## AAACCUGCCCAUGACCGCAAGCCUUUUGCUUGUCUUACCACAUGAGGAUCACCCAUGUGACAUGGGCUCCUUAUAAA [Solabixe] (puzzle: Sensor v3, turn-off variant 2)
[3]
  apparent KD of MS2 coat protein: 14.1 nM
[2]
  apparent KD of MS2 coat protein: 10.5 nM
[4]
  apparent KD of MS2 coat protein: 13.5 nM

## AGAAAGGCCCAUGGCCGCAAGCUUUUUGCUUGUCUUACCACAUGAGGAUCACCCAUGUGACAUGGGCUCCUGAUAAU [Atveuser] (puzzle: Sensor v3, turn-off variant 2)
[3]
  apparent KD of MS2 coat protein: 14.3 nM
[2]
  apparent KD of MS2 coat protein: 10.4 nM
[4]
  apparent KD of MS2 coat protein: 13.3 nM

## UCGGCGUCAGGAUAUCCAAUAUAUGACAUGAGGAUCACCCAUGUUUCCACUCGUACCUCCGGAGAAGGGACGAAUA [Ex5 #91] (Eterna round: R97, puzzle: Exclusion 5)
Input ligand: FMN 200 uM
  apparent KD of MS2 coat protein: 30.9 nM
Input ligand: none
  apparent KD of MS2 coat protein: 35.7 nM

## UGAUCACAUGAGGAUCACCCAUGUCAGGAUAUCUACAUUGAAGCCUCGGCUUCAAUGUAGAGAAGGGAUAUAAU [E1/5-B2] (Eterna round: R97, puzzle: Exclusion 1)
Input ligand: FMN 200 uM
  apparent KD of MS2 coat protein: 189 nM
Input ligand: none
  apparent KD of MS2 coat protein: 86.8 nM

## UCCUGACAUGAGGAUCACCCAUGUGAGGAUAUGUGGUUCGGGUCAACUCCCGUUCCGUGCAGAAGGCACAGGGC [EX1 A.29] (Eterna round: R97, puzzle: Exclusion 1)
Input ligand: FMN 200 uM
  apparent KD of MS2 coat protein: 26.4 nM
Input ligand: none
  apparent KD of MS2 coat protein: 16.2 nM

Source: the supplement of paper PMC9170038
